Legend:
[1] = target: Recombinant FAK FAT protein (fluorescence polarization assay) (human) (UniProt Q05397); experiment: FP
[2] = target: Biotinylated AviTag FAK FAT protein (UniProt Q05397); experiment: SPR; details: left panel, two-site binding model, peptide 200 µM to 49 nM, n = 5, X = olefinic amino acids joined by an i,i + 7 hydrocarbon staple
Biotinylated AviTag FAK FAT protein, sequence (Q05397 whole entry): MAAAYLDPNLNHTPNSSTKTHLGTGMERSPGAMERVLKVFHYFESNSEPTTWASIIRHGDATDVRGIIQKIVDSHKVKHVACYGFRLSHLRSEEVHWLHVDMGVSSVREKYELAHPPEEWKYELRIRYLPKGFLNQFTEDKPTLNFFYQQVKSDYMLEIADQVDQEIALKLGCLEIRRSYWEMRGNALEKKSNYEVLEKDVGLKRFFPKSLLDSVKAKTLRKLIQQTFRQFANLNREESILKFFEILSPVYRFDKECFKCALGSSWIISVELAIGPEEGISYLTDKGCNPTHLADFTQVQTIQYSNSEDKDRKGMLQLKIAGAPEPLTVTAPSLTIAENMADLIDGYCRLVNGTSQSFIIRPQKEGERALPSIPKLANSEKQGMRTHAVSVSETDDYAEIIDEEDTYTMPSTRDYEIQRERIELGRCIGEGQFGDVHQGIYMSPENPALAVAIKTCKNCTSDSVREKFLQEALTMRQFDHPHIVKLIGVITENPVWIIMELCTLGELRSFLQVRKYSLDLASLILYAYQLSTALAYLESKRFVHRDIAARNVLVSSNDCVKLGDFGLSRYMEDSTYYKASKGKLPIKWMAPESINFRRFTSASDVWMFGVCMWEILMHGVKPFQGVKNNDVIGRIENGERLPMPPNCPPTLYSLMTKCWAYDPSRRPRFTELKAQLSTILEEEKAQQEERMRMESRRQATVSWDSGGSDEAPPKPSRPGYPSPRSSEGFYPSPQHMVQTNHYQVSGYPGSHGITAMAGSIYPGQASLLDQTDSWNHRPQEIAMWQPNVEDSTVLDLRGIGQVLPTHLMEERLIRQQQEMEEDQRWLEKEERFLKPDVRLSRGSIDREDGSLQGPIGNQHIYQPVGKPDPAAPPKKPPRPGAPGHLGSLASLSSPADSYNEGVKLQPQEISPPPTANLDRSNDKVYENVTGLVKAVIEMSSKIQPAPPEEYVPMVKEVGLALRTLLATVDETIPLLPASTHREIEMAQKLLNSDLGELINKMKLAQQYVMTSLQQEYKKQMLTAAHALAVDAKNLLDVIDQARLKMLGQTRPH

Negative control peptide 2014 (1907 with L145E and L152E), sequence (P49023 whole entry L145E/L152E, looked up, tested part not stated): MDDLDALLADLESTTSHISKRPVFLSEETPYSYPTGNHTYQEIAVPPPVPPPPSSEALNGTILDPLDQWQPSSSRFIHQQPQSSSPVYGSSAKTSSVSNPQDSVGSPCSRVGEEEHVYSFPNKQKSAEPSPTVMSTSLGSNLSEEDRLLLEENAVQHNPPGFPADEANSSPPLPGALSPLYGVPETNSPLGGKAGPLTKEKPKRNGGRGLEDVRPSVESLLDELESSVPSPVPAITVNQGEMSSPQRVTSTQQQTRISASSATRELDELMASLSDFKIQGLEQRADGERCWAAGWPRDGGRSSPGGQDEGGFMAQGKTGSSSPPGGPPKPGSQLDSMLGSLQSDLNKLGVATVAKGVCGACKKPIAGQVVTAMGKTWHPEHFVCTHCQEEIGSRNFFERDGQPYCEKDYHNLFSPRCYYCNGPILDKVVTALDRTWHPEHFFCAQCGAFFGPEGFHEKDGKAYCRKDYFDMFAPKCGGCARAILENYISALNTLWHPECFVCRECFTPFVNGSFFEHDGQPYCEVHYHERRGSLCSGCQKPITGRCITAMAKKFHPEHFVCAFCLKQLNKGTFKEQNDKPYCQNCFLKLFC
Recombinant FAK FAT protein (fluorescence polarization assay) (human), sequence (Q05397 whole entry): as the sequence (Q05397 whole entry) above

Ki [1]	Substance	Kd ([2]; KD1)	Kd ([2]; KD2)
> 1250 µM	Negative control peptide 2014 (1907 with L145E and L152E) (from UniProt P49023 141-153)	–	–
–	Paxillin LD2 peptide (141-…-153) S143X; L150X	0.8 µM	8.7 µM
